Experimental data as given in PMC10864350, “Phosphorylation-dependent deubiquitinase OTUD3 regulates YY1 stability and promotes colorectal cancer progression” (Cell Death & Disease, 2024).
Blank lines part the entries; values can stand above or below the molecule they belong to.

Columns and labels:
YY1 = YY1 (UniProt P25490); test: co-IP; settings: reference: HA-OTUD3 wild type; sites S326
[1] = biological target: T1, Flag-tagged YY1 (Yin Yang 1), full length, wild type (UniProt P25490 1-414); test: pull-down; GST or GST-OTUD3 (E. coli) incubated overnight at 4 °C with purified Flag-YY1 or Myc-PLK1 from HEK-293T; Glutathione-Sepharose 4B beads; immunoblot with anti-Flag or anti-Myc; settings: both partners purified
T1 construct: Yin Yang 1 (YY1), zinc finger transcription factor, full-length wild type cloned into pCDNA3.1-CMV-Flag-C; The vector name pCDNA3.1-CMV-Flag-C may mean a C-terminal tag; also called Flag-YY1; YY1-WT; source: SW480, transfected, in lysate

[2] = biological target: T2, Myc-tagged PLK1 (wild-type) (UniProt P53350 1-603); test: as above; settings: both partners purified
T2 construct: Polo-like kinase 1 (PLK1), wild type, cloned into pCDNA3.1-CMV-Myc-C; The vector name pCDNA3.1-CMV-Myc-C may mean a C-terminal tag; also called Myc-PLK1; source: SW480, transfected, in lysate
T2 sequence (P53350 whole entry): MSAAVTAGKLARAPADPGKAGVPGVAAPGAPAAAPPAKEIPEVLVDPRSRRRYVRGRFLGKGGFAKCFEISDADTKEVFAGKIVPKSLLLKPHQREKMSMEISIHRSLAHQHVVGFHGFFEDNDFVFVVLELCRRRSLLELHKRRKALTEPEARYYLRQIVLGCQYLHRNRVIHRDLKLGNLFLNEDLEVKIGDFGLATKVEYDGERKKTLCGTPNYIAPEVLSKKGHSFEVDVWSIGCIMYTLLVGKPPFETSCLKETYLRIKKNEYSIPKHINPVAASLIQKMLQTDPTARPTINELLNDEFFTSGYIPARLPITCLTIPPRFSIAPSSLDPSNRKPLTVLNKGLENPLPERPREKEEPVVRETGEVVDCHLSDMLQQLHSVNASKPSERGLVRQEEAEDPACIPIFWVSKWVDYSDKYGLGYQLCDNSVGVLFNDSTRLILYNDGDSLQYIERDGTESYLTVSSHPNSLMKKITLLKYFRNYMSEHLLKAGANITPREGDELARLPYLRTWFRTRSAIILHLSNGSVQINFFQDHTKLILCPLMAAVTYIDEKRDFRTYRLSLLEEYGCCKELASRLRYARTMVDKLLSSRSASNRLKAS

T1 sequence (P25490 whole entry): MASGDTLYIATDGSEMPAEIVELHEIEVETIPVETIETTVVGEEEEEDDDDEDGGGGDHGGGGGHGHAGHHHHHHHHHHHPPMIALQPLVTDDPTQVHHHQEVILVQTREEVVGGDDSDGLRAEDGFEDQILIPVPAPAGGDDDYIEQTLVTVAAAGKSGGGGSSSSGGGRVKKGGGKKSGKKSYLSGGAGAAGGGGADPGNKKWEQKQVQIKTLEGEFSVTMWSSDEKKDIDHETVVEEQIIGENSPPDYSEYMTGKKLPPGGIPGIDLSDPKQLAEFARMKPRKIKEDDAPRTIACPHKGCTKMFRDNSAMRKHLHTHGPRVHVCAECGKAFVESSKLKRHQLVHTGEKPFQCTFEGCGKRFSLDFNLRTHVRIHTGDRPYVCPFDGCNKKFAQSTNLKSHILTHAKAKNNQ

binding against the reference (YY1): weaker
Molecule: OTUD3 (from UniProt Q5T2D3) HA-OTUD3 S326A

binding result [1]: binds
binding result [2]: binds
B1: GST-OTUD3 recombinant protein (enzyme, human, UniProt Q5T2D3 1-398, looked up)
chain: MSRKQAAKSRPGSGSRKAEAERKRDERAARRALAKERRNRPESGGGGGCEEEFVSFANQLQALGLKLREVPGDGNCLFRALGDQLEGHSRNHLKHRQETVDYMIKQREDFEPFVEDDIPFEKHVASLAKPGTFAGNDAIVAFARNHQLNVVIHQLNAPLWQIRGTEKSSVRELHIAYRYGEHYDSVRRINDNSEAPAHLQTDFQMLHQDESNKREKIKTKGMDSEDDLRDEVEDAVQKVCNATGCSDFNLIVQNLEAENYNIESAIIAVLRMNQGKRNNAEENLEPSGRVLKQCGPLWEEGGSGARIFGNQGLNEGRTENNKAQASPSEENKANKNQLAKVTNKQRREQQWMEKKKRQEERHRHKALESRGSHRDNNRSEAEANTQVTLVKTFAALNI
notes: OTUD3 cloned into the pGEX-6P-1 vector; also called GST-tagged OTUD3; GST-labeled OTUD3; source: Escherichia coli BL21 (DE3), purified (Glutathione Sepharose 4B beads)
